Columns and labels:
DGI-2 polypeptide [1] = biological target: T1, DGI-2 polypeptide (UniProt Q15004 1-111, limits assumed); test: phage ELISA, 405 nm; DGI-2 coated
T1 construct: Vector-derived residues or tag of pIVEX2.3 are not described for this construct; also called KIAA0101
T1 sequence (looked up): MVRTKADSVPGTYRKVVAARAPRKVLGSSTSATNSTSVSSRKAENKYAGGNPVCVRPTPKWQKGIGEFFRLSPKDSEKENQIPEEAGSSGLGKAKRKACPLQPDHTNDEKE
Experimental: (§1) For analysis of individual target binders, colonies were picked and phage prepared as described above using helper phage, M13KO7. Ninety-six-well microtiter plates were coated with 500 ng/well of specific target protein, 500 ng/well lactate dehydrogenase (LDH) irrelevant or non-specific target, 500 ng/well of positive control antibody raised against ETAG, and negative control of non-fat milk powder-PBS 2% at 4° C. overnight. Plates were then blocked with 350 microliters/well PBS containing 2% non-fat milk for 1 hr at room temperature. One hundred microliters per well of phage from isolated clones were added and plates were incubated at room temperature for 2 hr after centrifuging samples for 20 minutes at 3500 rpm at 4° C. The phage solution was then removed, and the wells were washed three times with PBS at room temperature. Antibody raised against M13 conjugated to horseradish peroxidase (Pharmacia) was diluted 1:3000 in PBS-Tween and added to each well (100 µl/well). Incubation was for 1 hr at room temperature, followed by washing with PBS-(0.5%) Tween 3 times as described. Color was developed by addition of ABTS solution (100 µl/well; Boehringer, Indianapolis, Ind.). Plates were analyzed at 405 nm. A clone was considered "positive" if the $A405$ of the well was $\geq$2-fold over background.

[2] = biological target: T2, antibody raised against ETAG; test: phage ELISA, 405 nm; anti-E-tag antibody coated
T2 construct: read-out of display; also called E-tag antibody; E tag antibody
Experimental: as §1

DGI-2 polypeptide [3] = biological target: T1, DGI-2 polypeptide; test: phage ELISA, 405 nm; DGI-2 signal over LDH signal
Experimental: as §1

DGI-9 (HEC) [4] = biological target: T3, DGI-9 (HEC) (UniProt O14777 1-642, limits assumed); test: phage ELISA; DGI-9 coated
T3 sequence (looked up): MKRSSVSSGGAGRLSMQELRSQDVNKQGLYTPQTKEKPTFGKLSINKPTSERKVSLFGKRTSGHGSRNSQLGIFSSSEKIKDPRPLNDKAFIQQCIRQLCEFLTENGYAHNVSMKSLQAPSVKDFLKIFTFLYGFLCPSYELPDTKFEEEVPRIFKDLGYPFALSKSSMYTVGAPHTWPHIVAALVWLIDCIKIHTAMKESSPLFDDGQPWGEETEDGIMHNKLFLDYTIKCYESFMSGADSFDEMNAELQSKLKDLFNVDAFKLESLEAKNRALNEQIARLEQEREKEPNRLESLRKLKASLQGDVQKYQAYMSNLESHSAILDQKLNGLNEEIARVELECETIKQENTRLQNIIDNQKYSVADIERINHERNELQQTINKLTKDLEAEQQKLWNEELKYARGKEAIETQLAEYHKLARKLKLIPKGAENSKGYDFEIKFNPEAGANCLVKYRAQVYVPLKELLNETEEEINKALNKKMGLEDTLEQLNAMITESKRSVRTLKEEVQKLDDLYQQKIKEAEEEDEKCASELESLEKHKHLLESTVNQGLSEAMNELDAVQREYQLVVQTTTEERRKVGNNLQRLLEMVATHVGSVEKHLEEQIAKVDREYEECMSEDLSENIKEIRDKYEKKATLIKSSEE

[5] = biological target: T2, antibody raised against ETAG; test: phage ELISA; anti-E-tag antibody coated
DGI-9 (HEC) [6] = biological target: T3, DGI-9 (HEC); test: phage ELISA; DGI-9 signal over LDH signal

B1: DGI-2-40F-3-B5 (peptide)
peptide: RSRSSSGASGSMLRVQNHMVLGSWMVRQPMGSMTPFHGHGAAAGAPVPYPDPLEPRP
notes: not shown: phage gene III coat protein (pCANTAB5E)
DGI-2 (OD) (DGI-2 polypeptide [1]): 1 OD
ETAG (OD) [2]: 9.2 OD
DGI-2/LDH (OD) (DGI-2 polypeptide [3]): 1.2 ratio

B2: DGI-2-40F-3-B72 (peptide)
peptide: PKDGAAFKGSDFIQGGQTVMERAPALWWRDGGGQWEAPSTAAAGAPVPYPDPLEPRP
notes: as for B1
DGI-2 (OD) (DGI-2 polypeptide [1]): 1 OD
ETAG (OD) [2]: 10.4 OD
DGI-2/LDH (OD) (DGI-2 polypeptide [3]): 1.3 ratio

B3: DGI9-20M-4-A12 (peptide)
peptide: SRLALSSQHGLSLVAGRRRGGAPVPYPDPLEPR
notes: library 20R (the E-tag is described for library 20F); not shown: phage gene III coat protein (pCANTAB5E)
DGI-9 (DGI-9 (HEC) [4]): 1.9 ratio over background
E-Tag [5]: 20.7 ratio over background
DGI9/LDH (DGI-9 (HEC) [6]): 2.1 ratio

B4: DGI9-20M-4-A414 (peptide)
peptide: FLLQDFIMDAGSFVKPIGVGGAPVPYPDPLEPR
notes: library 20F; not shown: phage gene III coat protein (pCANTAB5E)
DGI-9 (DGI-9 (HEC) [4]): 8.7 ratio over background
E-Tag [5]: 32.6 ratio over background
DGI9/LDH (DGI-9 (HEC) [6]): 8.1 ratio

B5: DGI-2-40F-3-A12 (peptide)
peptide: RRTQPAYRSGADDRTSGFYCYVTSALSAGAWMPFLPRRLAAAAGAPVPYPDPLEPRP
notes: as for B1
DGI-2 (OD) (DGI-2 polypeptide [1]): 0.9 OD
ETAG (OD) [2]: 4.6 OD
DGI-2/LDH (OD) (DGI-2 polypeptide [3]): 1.1 ratio

B6: DGI-2-20F-3-C3 (peptide)
peptide: FSSVLGLLDRRGVPVVVGEDAAAGAPVPYPDPLEPRP
notes: as for B1
DGI-2 (OD) (DGI-2 polypeptide [1]): 1.1 OD
ETAG (OD) [2]: 11.6 OD
DGI-2/LDH (OD) (DGI-2 polypeptide [3]): 1.1 ratio

B7: DGI-2-40F-3-D1 (peptide)
peptide: MGQGFHYNRQPYMSHQCYAFTFSTPFLDGDRIPHGVSRGLAAAGAPVPYPDPLEPRP
notes: as for B1
DGI-2 (OD) (DGI-2 polypeptide [1]): 0.8 OD
ETAG (OD) [2]: 4.1 OD
DGI-2/LDH (OD) (DGI-2 polypeptide [3]): 1 ratio

B8: DGI-2-40F-3-C52 (peptide)
peptide: GLLFTSSPYQCFWVHCTLTMSPLSVLGDLSSTIGRMRASRAAAGAPVPYPDPLEPRP
notes: as for B1
DGI-2 (OD) (DGI-2 polypeptide [1]): 1 OD
ETAG (OD) [2]: 4.6 OD
DGI-2/LDH (OD) (DGI-2 polypeptide [3]): 1.3 ratio

B9: DGI-2-40F-3-A8 (peptide)
peptide: GQISLAGVAVCSSERMLLAFSSRVFLPGLKVPVTTSQRGSAAAGAPVPYPDPLEPRP
notes: as for B1
DGI-2 (OD) (DGI-2 polypeptide [1]): 0.8 OD
ETAG (OD) [2]: 1.5 OD
DGI-2/LDH (OD) (DGI-2 polypeptide [3]): 1.1 ratio

B10: DGI-2-40F-3-B95 (peptide)
peptide: DYKTCVSQHVHPLFGEYFYHKVTHMSILSPTFRVTSLYGKAAAGAPVPYPDPLEPRP
notes: as for B1
DGI-2 (OD) (DGI-2 polypeptide [1]): 1 OD
ETAG (OD) [2]: 5.4 OD
DGI-2/LDH (OD) (DGI-2 polypeptide [3]): 1.2 ratio

B11: DGI-2-40F-3-C7 (peptide)
peptide: HPWVTNMLVFQRPPPPGFWLSDTTPRQRNGLGQVERPSVDAAAGAPVPYPDPLEPRP
notes: as for B1
DGI-2 (OD) (DGI-2 polypeptide [1]): 1.2 OD
ETAG (OD) [2]: 8.8 OD
DGI-2/LDH (OD) (DGI-2 polypeptide [3]): 1.5 ratio

B12: DGI9-20M-4-E3 (peptide)
peptide: MAGFRGSGLSGYSEARLPRVGAPVPYPDPLEPR
notes: as for B4
DGI-9 (DGI-9 (HEC) [4]): 7 ratio over background
E-Tag [5]: 34.5 ratio over background
DGI9/LDH (DGI-9 (HEC) [6]): 7.1 ratio

B13: DGI-2-20F-3-B1 (peptide)
peptide: LSRIWRGVIESAREVESRGIAAAGAPVPYPDPLEPRP
notes: as for B1
DGI-2 (OD) (DGI-2 polypeptide [1]): 1.2 OD
ETAG (OD) [2]: 11.4 OD
DGI-2/LDH (OD) (DGI-2 polypeptide [3]): 1.2 ratio

B14: DGI-2-40F-3-B1 (peptide)
peptide: HGTRLRGVDYVMTWAGWQGYSSRKHVQQAVAGSSPGSDELAAAGAPVPYPDPLEPRP
notes: as for B1
DGI-2 (OD) (DGI-2 polypeptide [1]): 0.8 OD
ETAG (OD) [2]: 6.3 OD
DGI-2/LDH (OD) (DGI-2 polypeptide [3]): 1.2 ratio

B15: DGI-2-40F-3-A7 (peptide)
peptide: CAYRWGLFRGPGRVDYDLQVVGIMMWPGPIPDRSSRGSVAAAAGAPVPYPDPLEPRP
notes: as for B1
DGI-2 (OD) (DGI-2 polypeptide [1]): 0.9 OD
ETAG (OD) [2]: 8.7 OD
DGI-2/LDH (OD) (DGI-2 polypeptide [3]): 1.1 ratio

B16: DGI-2-40F-3-A1 (SEQ ID NO: 187) (peptide)
peptide: QYFARGSFQFGLSHVLSAAAAFHLYVFCKRLSRGFGIKDDAAAGAPVPYPDPLEPRP
notes: as for B1
DGI-2 (OD) (DGI-2 polypeptide [1]): 0.8 OD
ETAG (OD) [2]: 2.4 OD
DGI-2/LDH (OD) (DGI-2 polypeptide [3]): 1.1 ratio

B17: DGI-2-40F-3-D3 (peptide)
peptide: VQFAMTLSSRLWQHARHPLTDDAPPTVSFGTRRETLAGKAAAAGAPVPYPDPLEPRP
notes: as for B1
DGI-2 (OD) (DGI-2 polypeptide [1]): 0.9 OD
ETAG (OD) [2]: 0.9 OD
DGI-2/LDH (OD) (DGI-2 polypeptide [3]): 1.1 ratio

B18: DGI9-20M-4-A627 (peptide)
peptide: WDWSRFGAQLRGAILGRATGGAPVPYPDPLEPR
notes: as for B3
DGI-9 (DGI-9 (HEC) [4]): 6 ratio over background
E-Tag [5]: 27.2 ratio over background
DGI9/LDH (DGI-9 (HEC) [6]): 6.5 ratio

B19: DGI-2-40F-3-B6 (peptide)
peptide: QSNVWVLVGVIMQGVWYQRQHYCVYVMLLSDQVSVLLAVAAAAGAPVPYPDPLEPRP
notes: as for B1
DGI-2 (OD) (DGI-2 polypeptide [1]): 0.9 OD
ETAG (OD) [2]: 1.8 OD
DGI-2/LDH (OD) (DGI-2 polypeptide [3]): 1.2 ratio

B20: DGI-2-20R-4-E5 (peptide)
peptide: LHRLGQSMGGTLDHLQGWGVAAAGAPVPYPDPLEPRP
notes: as for B1
DGI-2 (OD) (DGI-2 polypeptide [1]): 1.2 OD
ETAG (OD) [2]: 17.9 OD
DGI-2/LDH (OD) (DGI-2 polypeptide [3]): 1.1 ratio

B21: DGI-2-40F-3-D9 (peptide)
peptide: RRTSADTDQLSRWEGAQAFSSLRSALSERLDSLRPGLPPSAAAGAPVPYPDPLEPRP
notes: as for B1
DGI-2 (OD) (DGI-2 polypeptide [1]): 1.1 OD
ETAG (OD) [2]: 15.8 OD
DGI-2/LDH (OD) (DGI-2 polypeptide [3]): 1.4 ratio

B22: DGI-2-40F-3-B4 (peptide)
peptide: LWLPCGLLVRPAQFYFYFSPLRHFLSSSVGSLSFPLSLLVAAAGAPVPYPDPLEPRP
notes: as for B1
DGI-2 (OD) (DGI-2 polypeptide [1]): 1 OD
ETAG (OD) [2]: 1.5 OD
DGI-2/LDH (OD) (DGI-2 polypeptide [3]): 1.1 ratio

B23: DGI-2-20C-3-D12 (peptide)
peptide: LVIQCSASVVACDLYWNYVGCLAAGAAAGAPVPYPDPLEPRP
notes: as for B1
DGI-2 (OD) (DGI-2 polypeptide [1]): 1.1 OD
ETAG (OD) [2]: 3.6 OD
DGI-2/LDH (OD) (DGI-2 polypeptide [3]): 1.1 ratio

Reference: patent US7056679 (ANTYRA, dated 2006)
